The values below come from publication PMC12117405.

This data set deals with Lsm2/Lsm3;Lsm6/Lsm5/Lsm7;Lsm4-link-Lsm8 (human;human;human, UniProt Q9Y333;P62310;P62312;Q9Y4Y9;Q9UK45;Q9Y4Z0;O95777 …, ||). Kind of data set: gel filtration co-elution.

With GGCAAUUUUUGACAGUCUCUACGGAGACUG (structured_RNA) [U4-5'Δ], the binding result is reported as “no binding”.
